# Assay results taken from patent US20220025023A1 (AC IMMUNE, published 2022).
# Where no end group is shown, it is not given here.
# B1: ACI-7062-401A2-Ab2 (antibody, IgG1, V domains shown)
# VH: DVQLVESGGGLVQPGGSRRLSCAASGFTFSRFGMHWVRQAPEKGLEWVAYIRSGSDIIYYADSVKGRFTISRDNPENTLFLQMTSLRSEDTAMYYCARSGTTVPFDYWGQGTSLTVSS
# VL: DIVMTQSPSSLAMSVGQKVTMSCKSSQSLLNSGDQKNYLAWYQQKPGQSPELLLYFASTRASGVPDRFIGSGSGTDFSLTISSVQAEDLADYFCQQHYSIPLTFGAGTKLELKR
# notes: also called 401A2C6; clone 2
# B2: ACI-7062-404D6-Ab2 (antibody, IgG3, V domains shown)
# VH: QVTLKESGPGILQPSQTLSLTCSFSGFSLSTYGIGVGWIRQPSGKGLEWLAHIWWNDYKYYNTALKSRLTISKDTSNNRVFLKIASVDTADTATYYCARVYGNLYYFDYWGQGTTLTVSS
# VL: DVLMTQTPLSLPVSLGDQASISCRSSQSIVHGSGNTYLEWYLQKPGQSPKLLIYKVSNRFSGVPDRFSGSGSGTDFTLRISRVEAEDLGVYYCFQGSHVPTFGAGTKLELKR
# notes: also called 404D6E11; clone 4
# Legend:
# [1] = biological target: T1, TDP-215 peptide (human); assay: indirect ELISA, 8-mer peptide library, OD 405 nm
# T1 construct: same ELISA method as for the biotinylated 15-mers
# T1 peptide: GDVMDVFI
# Procedure: (§1) Serum-free supernatants were harvested from stable hybridomas. The supernatants containing antibodies of interest were then screened by an indirect ELISA assay to determine epitopes. Epitopes were mapped using a library of TDP-43 15-mer peptides. Briefly, 96-well streptavidin-coated 96-well ELISA plates were incubated with 5 μg/mL of biotinylated 15-mer peptides spanning the amino acids (aa) 199-285 of human TDP-43 with 9 aa offset and 6 aa overlap. Plates were washed thoroughly with 0.05% Tween-20/PBS and then blocked with 1% bovine serum albumin (BSA) in 0.05% Tween-20/PBS for 1 hour at 37° C. The antibody contained in the hybridoma supernatant was then added at the indicated dilutions, and incubated for 2 hours at 37° C. after which the plates were washed as described previously. An AP-conjugated anti-mouse IgG secondary antibody (Jackson ImmunoResearch Laboratories, United Kingdom) was added at 1/1000 dilution in 0.05% Tween-20/PBS for 1 hour at 37° C. After the final wash, plates were incubated with pNPP (Sigma-Aldrich, Switzerland) an AP substrate solution, and read at 405 nm using an ELISA plate reader (Tecan).
# (§2) Furthermore, antibodies were tested using an indirect ELISA on a peptide library of 8-mer peptides with 7 aa overlap covering the sequence of human TDP-43 from aa 210 to aa 231, using the same ELISA method as describe previously in this section.
# [2] = biological target: T2, TP-29 (also: biotinylated, site not given here); assay: indirect ELISA, biotinylated 15-mer on streptavidin plate, hybridoma supernatant
# T2 construct: also called TP-29 peptide
# T2 peptide: ISVHISNAEPKHNSN
# Procedure: as §1
# [3] = biological target: T3, TP-30 (also: biotinylated, site not given here); assay: as above
# T3 construct: also called TP-30 peptide
# T3 peptide: PKHNSNRQLERSGRF
# Procedure: as §1
# [4] = biological target: T4, TP-31 (also: biotinylated, site not given here); assay: as above
# T4 construct: also called TP-31 peptide
# T4 peptide: ERSGRFGGNPGGFGN
# Procedure: as §1
# [5] = biological target: T5, TP-27 (also: biotinylated, site not given here); assay: as above
# T5 construct: also called TP-27 peptide
# T5 peptide: ADDQIAQSLCGEDLI
# Procedure: as §1
# [6] = biological target: T6, TP-26 (also: biotinylated, site not given here); assay: as above
# T6 construct: also called TP-26 peptide
# T6 peptide: FRAFAFVTFADDQIA
# Procedure: as §1
# [7] = biological target: T7, TP-28 (also: biotinylated, site not given here); assay: as above
# T7 construct: also called TP-28 peptide
# T7 peptide: CGEDLIIKGISVHIS
# Procedure: as §1
# [8] = biological target: T8, TDP-3 peptide (human); assay: Luminex bead assay, serial dilution of the antibody, MFI
# T8 construct: Irrelevant control peptide; conjugated to Luminex beads in the assay; also called TDP-43 aa 310-370; irrelevant target
# T8 peptide: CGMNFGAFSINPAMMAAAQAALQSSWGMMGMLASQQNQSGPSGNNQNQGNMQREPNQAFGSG
# [9] = biological target: T9, TDP-211 peptide (human); assay: indirect ELISA, 8-mer peptide library
# T9 construct: 8-mer of human TDP-43; same ELISA method as for the biotinylated 15-mers
# T9 peptide: FSQYGDVM
# Procedure: as §1, §2
# [10] = biological target: T10, TDP-217 peptide (human); assay: indirect ELISA, 8-mer peptide library
# T10 construct: 8-mer of human TDP-43; same ELISA method as for the biotinylated 15-mers
# T10 peptide: VMDVFIPK
# Procedure: as §1, §2
# [11] = biological target: T11, TDP-210 peptide (human); assay: indirect ELISA, 8-mer peptide library
# T11 construct: 8-mer of human TDP-43; same ELISA method as for the biotinylated 15-mers
# T11 peptide: FFSQYGDV
# Procedure: as §1, §2
# [12] = biological target: T12, TDP-223 peptide (human); assay: indirect ELISA, 8-mer peptide library
# T12 construct: 8-mer of human TDP-43; same ELISA method as for the biotinylated 15-mers
# T12 peptide: PKPFRAFA
# Procedure: as §1, §2
# [13] = biological target: T13, TDP-221 peptide (human); assay: indirect ELISA, 8-mer peptide library
# T13 construct: 8-mer of human TDP-43; same ELISA method as for the biotinylated 15-mers
# T13 peptide: FIPKPFRA
# Procedure: as §1, §2
# [14] = biological target: T14, TDP-213 peptide (human); assay: indirect ELISA, 8-mer peptide library
# T14 construct: 8-mer of human TDP-43; same ELISA method as for the biotinylated 15-mers
# T14 peptide: QYGDVMDV
# Procedure: as §1, §2
# [15] = biological target: T15, TDP-222 peptide (human); assay: indirect ELISA, 8-mer peptide library
# T15 construct: 8-mer of human TDP-43; same ELISA method as for the biotinylated 15-mers
# T15 peptide: IPKPFRAF
# Procedure: as §1, §2
# [16] = biological target: T16, TDP-220 peptide (human); assay: indirect ELISA, 8-mer peptide library
# T16 construct: 8-mer of human TDP-43; same ELISA method as for the biotinylated 15-mers
# T16 peptide: VFIPKPFR
# Procedure: as §1, §2
# [17] = biological target: T17, TDP-212 peptide (human); assay: indirect ELISA, 8-mer peptide library
# T17 construct: 8-mer of human TDP-43; same ELISA method as for the biotinylated 15-mers
# T17 peptide: SQYGDVMD
# Procedure: as §1, §2
# [18] = biological target: T18, TDP-224 peptide (human); assay: indirect ELISA, 8-mer peptide library
# T18 construct: 8-mer of human TDP-43; same ELISA method as for the biotinylated 15-mers
# T18 peptide: KPFRAFAF
# Procedure: as §1, §2
# [19] = biological target: T19, TDP-214 peptide (human); assay: indirect ELISA, 8-mer peptide library
# T19 construct: 8-mer of human TDP-43; same ELISA method as for the biotinylated 15-mers
# T19 peptide: YGDVMDVF
# Procedure: as §1, §2
# [20] = biological target: T20, TDP-219 peptide (human); assay: indirect ELISA, 8-mer peptide library
# T20 construct: 8-mer of human TDP-43; same ELISA method as for the biotinylated 15-mers
# T20 peptide: DVFIPKPF
# Procedure: as §1, §2
# [21] = biological target: T21, TDP-218 peptide (human); assay: indirect ELISA, 8-mer peptide library
# T21 construct: 8-mer of human TDP-43; same ELISA method as for the biotinylated 15-mers
# T21 peptide: MDVFIPKP
# Procedure: as §1, §2
# [22] = biological target: T22, BSA (bovine, UniProt P02769); assay: indirect ELISA, control coat in the 15-mer series, hybridoma supernatant
# T22 construct: not specified; also called bovine serum albumin
# [23] = biological target: T23, TDP-1 peptide (human); assay: Luminex bead assay, antibody serial dilution, TDP-1 peptide beads
# T23 construct: Immunogen peptide; conjugated to Luminex beads in the assay; also called TDP-43 aa 212-272
# T23 peptide: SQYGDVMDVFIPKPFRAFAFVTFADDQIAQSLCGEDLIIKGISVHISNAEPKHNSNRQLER
# [24] = biological target: T24, TP-25 peptide (human, also: biotinylated, site not given here); assay: indirect ELISA, biotinylated 15-mer peptide on streptavidin plate, hybridoma supernatant
# T24 construct: 15-mer of human TDP-43 from the library spanning aa 199-285; captured on streptavidin plates
# T24 peptide: VMDVFIPKPFRAFAF
# Procedure: as §1
# [25] = biological target: T25, TP-24 peptide (human, also: biotinylated, site not given here); assay: as above
# T25 construct: 15-mer of human TDP-43 from the library spanning aa 199-285; captured on streptavidin plates
# T25 peptide: REFFSQYGDVMDVFI
# Procedure: as §1
# T22 sequence (P02769 25-607 limits assumed): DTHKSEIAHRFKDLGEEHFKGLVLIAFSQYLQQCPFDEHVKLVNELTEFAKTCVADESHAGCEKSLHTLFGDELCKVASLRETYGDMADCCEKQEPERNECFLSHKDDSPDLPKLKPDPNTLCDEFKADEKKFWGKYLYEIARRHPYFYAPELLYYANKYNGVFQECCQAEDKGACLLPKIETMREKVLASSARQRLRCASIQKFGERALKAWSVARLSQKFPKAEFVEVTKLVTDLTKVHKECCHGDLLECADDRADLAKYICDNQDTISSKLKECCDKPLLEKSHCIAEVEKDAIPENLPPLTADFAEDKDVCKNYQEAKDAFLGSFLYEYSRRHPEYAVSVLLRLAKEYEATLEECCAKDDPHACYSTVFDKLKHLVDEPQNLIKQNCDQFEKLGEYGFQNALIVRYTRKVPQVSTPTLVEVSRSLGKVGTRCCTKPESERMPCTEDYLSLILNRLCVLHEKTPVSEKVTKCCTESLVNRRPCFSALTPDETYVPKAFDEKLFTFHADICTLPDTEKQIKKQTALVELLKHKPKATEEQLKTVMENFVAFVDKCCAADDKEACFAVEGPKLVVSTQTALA
Binder,binding result [2],binding result [3],binding result [4],binding result [5],binding result [6],binding result [8],binding result [22],EC50 [23] [nM],OD [24],OD [25],also measured
B1,no binding,no binding,no binding,no binding,no binding,no binding (tested: about 20000 pM),no binding,< 0.01,1 O.D. (405 nm),2.5 O.D. (405 nm),binding result [1]: binds; binding result [7]: no binding; binding result [9]: no binding; binding result [10]: no binding; binding result [11]: no binding; binding result [12]: no binding; binding result [13]: no binding; binding result [14]: no binding; binding result [15]: no binding; binding result [16]: no binding; binding result [17]: no binding; binding result [18]: no binding; binding result [19]: no binding; binding result [20]: no binding; binding result [21]: no binding
B2,no binding,no binding,no binding,no binding,no binding,no binding (tested: about 20000 pM),no binding,< 0.01,0.9 O.D. (405 nm),4 O.D. (405 nm),–
